The target of assay [1] is Hy.1B11 TCR with biotinylated C-terminal BirA tag (human). In words: SPR. On the technique in general: SPR reads the build-up and loss of mass on a sensor chip optically.
The target of assay [2] is HLA-DQ1 (DQA1*0102, DQB1*0502) loaded with the myelin basic protein peptide (res. 85–99) (human). In words: SPR.
For assay [3], the target named is HLA-DQ1 (DQA1*0102, DQB1*0502), supplied as DQ1/CLIP for peptide-binding assays (human). Description: ELISA. Background: ELISA stands for enzyme-linked immunosorbent assay.

In general, Kd refers to the free concentration of one partner at which half of the binding sites on the other are occupied at equilibrium, for simple one-to-one binding. In assay [1], “HLA-DQ1 (DQA1*0102, DQB1*0502) loaded with the Pseudomonas aeruginosa phosphomannomutase peptide PMM 260–274 (from UniProt P26276 260-274) (peptide-MHC)” showed a Kd of 57.3 µM.
In assay [1], “HLA-DQ1 (DQA1*0102, DQB1*0502) loaded with the myelin basic protein peptide (res. 85–99) (peptide-MHC)” yielded a Kd of 6.96 µM.
The substance “Hy.1B11 T cell receptor (TCR), wild type, soluble” showed a Kd in assay [2] of 14.3 µM.
“MBP 85–99 analogue peptide with P6 Asn to Asp substitution”: in assay [3], the fold higher affinity than the WT MBP peptide came out at 10 fold.

The values above are taken from PMC4193804.
